Type in all cases: cell-based
Experiment [1] is described as follows: YFP quench plate reader assay, response to TC-5619. Particulars: LX293T YFP reporter cells. A digest of the protocol: (§1)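 Cells were seeded two days ahead, transfected the next day with mutant channel DNA, and washed in HEPES-buffered ECS on assay day. After 30 min at 37° C, iodide-containing ligand solution was added, and YFP quench tracked every 1.3 sec relative to baseline.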

The nature of experiment [2]: YFP quench plate reader assay, response to ABT-126. Particulars: LX293T YFP reporter cells. The method, boiled down: as §1
The nature of experiment [3]: High throughput electrophysiology in HEK293T cells, acetylcholine. The protocol: To confirm the EC50s determined by plate reader as well as develop a better understanding of maximum current flow, the engineered receptors were subjected to high throughput electrophysiology system, as described below. For HEK293T studies, cDNAs encoding ion channels were cloned into pcDNA3.1 using standard recombination techniques. HEK293T cells from Clontech (Lenti-X™ 293T Cell Line) were cultured in DMEM supplemented with 10% FBS and 1% Pen/Strep to 40-50% confluence using standard cell culture protocols, transfected with ion channel plasmids at a concentration of 18 μg per 15 cm dish using Fugene 6, and grown for an additional 24 hours. Cells were then assayed on a electrophysiological system (IonFluxHT and/or Mercury, Fluxion Biosciences) in which dose-response relationships may be assessed through a microfluidics-based platform for establishing whole cell configurations. […] Data were then analyzed off-line using custom Python scripts to convert data to .csv format, re-plot traces, and apply QC measurements to reject unstable recordings (i.e. thresholding based on access resistance and/or standard deviation in baseline, as well as artifact rejection). Peak currents were then calculated and population data were fit using a 4-parameter logistic equation as described by the Hill Equation. […]

The nature of experiment [4]: Rheobase shift in rat DRG neurons, TC-5619. The protocol: Using whole cell manual patch clamp electrophysiology in HEK293 cells and rat DRG neurons, the EC50 of the various engineered receptors disclosed herein to Ach and non-native ligands was measured. The rheobase shift was also measured in rat DRG neurons, which reflects the efficacy of the receptors. To calculate the rheobase, first, the amount of current that can produce an action potential was determined. Then the ligand was added, followed by a step wise increase in the current injected up to 700 pA. The current injected after addition of the ligand was divided by, the original current injected to obtain an action potential, to calculate the rheobase. The EC50 was calculated using the Hill equation with peak current measurements from escalating doses of ligand.

B1: Y115D, L131Q in SEQ ID NO: 33: CR-11 (Chemogenic receptor-11): SEQ ID NO: 33 with substitutions Y115D and L131Q (protein)
chain: MRCSPGGVWLALAASLLHVSLQGEFQRKLYKELVKNYNPLERPVANDSQPLTVYFSLSLLQIMDVDEKNQVLTTNIWLQMSWTDHYLQWNVSEYPGVKTVRFPDGQIWKPDILLDNSADERFDATFHTNVQVNSSGHCQYLPPGIFKSSCPMDLKNFPMDVQTCKLKFGSWSYGGWSLDLQMQEADISGYIPNGEWDLVGIPGKRSERFYECCKEPYPDVTFTVTMRRRMGYYLIQMYIPSLLIVILSWISFWINMDAAPARVGLGITTVLTMTTQSSGSRASLPKVSYVKAIDIWMAVCLLFVFSALLEYAAVNFVSRQHKELLRFRRKRRHHKSPMLNLFQEDEAGEGRFNFSAYGMGPACLQAKDGISVKGANNSNTTNPPPAPSKSPEEMRKLFIQRAKKIDKISRIGFPMAFLIFNMFYWIIYKIVRREDVHNQ
modifications: synthetic sequence of chimeric LGIC
Take B1: the “percent quench of YFP fluorescence, 1 nM brd” value in experiment [1] (1 nM TC-5619) is listed as 0.92%. The “percent quench of YFP fluorescence, 3 nM brd” value in experiment [1] (3 nM TC-5619) was −4.65%. In addition, in experiment [1] (10 nM TC-5619), the “percent quench of YFP fluorescence, 10 nM brd” value is 0.38%. The “percent quench of YFP fluorescence, 30 nM brd” value in experiment [1] (30 nM TC-5619) stood at 8.96%. Further, the “percent quench of YFP fluorescence, 100 nM brd” value in experiment [1] (100 nM TC-5619) is recorded as 12.18%. The “percent quench of YFP fluorescence, 300 nM brd” value in experiment [1] (300 nM TC-5619) is on record as −0.3%. Also, the “percent quench of YFP fluorescence, 1 uM brd” value in experiment [1] (1 uM TC-5619) came to 45.47%. For the same molecule, in experiment [2] (50 nM ABT-126), the “percent quench of YFP fluorescence, 50 nM abt” value is recorded as −1.81%. Further, in experiment [2] (100 nM ABT-126), the “percent quench of YFP fluorescence, 100 nM abt” value is recorded as −2.61%. In addition, the “percent quench of YFP fluorescence, 300 nM abt” value in experiment [2] (300 nM ABT-126) is on record as −3.78%. Moreover, the “percent quench of YFP fluorescence, 1 uM abt” value in experiment [2] (1 uM ABT-126) is reported as −2.6%. Further, the “fold reduced potency to acetylcholine compared to wild type receptor” value in experiment [3] is given as “over 500 fold”. Also, the “Rheobase Shift; Rat DRG Neurons, +TC-5619” value in experiment [4] (TC5619 @ EC90) turned out to be 625 ± 35 pA. Besides, the “Rheobase Shift; Rat DRG Neurons, Baseline” value in experiment [4] (receptor-expressing rat DRG neurons, before ligand) came out at 163 ± 28 pA.

For the origin of these results see patent US20220348635A1, “COMPOSITIONS AND METHODS FOR NEUROLOGICAL DISEASES” (Coda Biotherapeutics, Inc., priority 2019, published 2022).
